T1: recombinant human His-tagged FcγRIIa (R&D Systems #1330-CD-050) (human, UniProt P12318 36-218, limits assumed)
T1 construct: Bought; also called CD32a; recombinant, soluble, human FcγRIIa
T1 sequence (looked up): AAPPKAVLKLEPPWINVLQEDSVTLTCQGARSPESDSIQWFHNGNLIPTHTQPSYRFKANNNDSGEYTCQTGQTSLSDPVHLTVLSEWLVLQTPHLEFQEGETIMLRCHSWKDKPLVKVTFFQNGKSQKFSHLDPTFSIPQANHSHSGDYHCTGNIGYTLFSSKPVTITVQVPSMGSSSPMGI

T2: recombinant human FcγRIIb (R&D Systems #1875-CD-050) (human, UniProt P31994 46-217, limits assumed)
T2 construct: Bought; also called CD32b; recombinant, soluble, human FcγRIIb
T2 sequence (looked up): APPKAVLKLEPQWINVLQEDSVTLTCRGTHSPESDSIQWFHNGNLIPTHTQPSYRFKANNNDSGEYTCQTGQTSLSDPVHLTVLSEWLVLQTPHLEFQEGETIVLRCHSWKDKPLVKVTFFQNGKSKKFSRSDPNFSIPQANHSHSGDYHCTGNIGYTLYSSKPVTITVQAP

B1: CHO-CNTO 860 WT (antibody, human IgG1, kappa)
heavy: not shown
light: DIQMTQSPSSLSASVGDRVTITCKASQDIRKYLNWYQQKPGKAPKLLIYYATSLADGVPSRFSGSGSGTDYTFTISSLQPEDIATYYCLQHGESPYTFGQGTKLEITRTVAAPSVFIFPPSDEQLKSGTASVVCLLNNFYPREAKVQWKVDNALQSGNSQESVTEQDSKDSTYSLSSTLTLSKADYEKHKVYACEVTHQGLSSPVTKSFNRGEC
modifications: N-linked glycan at heavy chain Asn297 (CHO-type, highly fucosylated); not carried by the letters
notes: Anti-human tissue factor human IgG1/kappa; transiently expressed in CHO cells (plasmids p4145/p4146; CHO Abs typically 95% fucosylated), purified by protein A; also called CNTO 860 WT from CHO cells; WT (CHO cell-derived); copies: 2 + 2
B2: CHO-CNTO 860 A330I (antibody, IgG1)
heavy: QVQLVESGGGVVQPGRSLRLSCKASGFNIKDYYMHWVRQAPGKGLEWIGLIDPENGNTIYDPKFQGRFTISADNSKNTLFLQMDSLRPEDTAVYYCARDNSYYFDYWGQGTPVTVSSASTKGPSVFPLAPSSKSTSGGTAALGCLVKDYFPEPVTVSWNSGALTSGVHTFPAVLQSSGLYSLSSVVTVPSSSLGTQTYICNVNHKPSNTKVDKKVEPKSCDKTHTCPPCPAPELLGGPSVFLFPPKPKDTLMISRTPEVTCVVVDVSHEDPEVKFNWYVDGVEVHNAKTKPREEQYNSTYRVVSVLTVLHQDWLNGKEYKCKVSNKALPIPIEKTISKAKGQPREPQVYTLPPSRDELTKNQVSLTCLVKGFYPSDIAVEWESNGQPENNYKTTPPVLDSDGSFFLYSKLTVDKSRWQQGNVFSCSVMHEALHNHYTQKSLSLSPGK
light: B1 light
modifications: N-linked glycan at Asn297 of the heavy chain (CHO-type, highly fucosylated); not carried by the letters
notes: IgG1/kappa Fc variant; EU numbering; also called A330I (CHO cell-derived); copies: 2 + 2
B3: CHO-CNTO 860 A330Y (antibody, human IgG1, kappa)
heavy: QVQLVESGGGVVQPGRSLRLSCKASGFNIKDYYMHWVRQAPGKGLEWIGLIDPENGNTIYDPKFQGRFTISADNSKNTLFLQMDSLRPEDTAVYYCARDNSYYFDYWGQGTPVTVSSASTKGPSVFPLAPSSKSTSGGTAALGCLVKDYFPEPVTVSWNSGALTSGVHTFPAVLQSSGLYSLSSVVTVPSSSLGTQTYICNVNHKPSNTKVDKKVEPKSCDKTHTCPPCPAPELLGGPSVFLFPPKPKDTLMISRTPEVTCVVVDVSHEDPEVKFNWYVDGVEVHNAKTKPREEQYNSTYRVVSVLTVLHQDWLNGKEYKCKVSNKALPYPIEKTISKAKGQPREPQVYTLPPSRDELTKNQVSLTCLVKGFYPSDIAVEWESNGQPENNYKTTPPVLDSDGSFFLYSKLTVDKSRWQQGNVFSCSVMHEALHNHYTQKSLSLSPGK
light: B1 light
modifications: N-linked glycan at Asn297 of the heavy chain (CHO-type, highly fucosylated); not carried by the letters
notes: IgG1/kappa Fc variant; transiently expressed in CHO cells (p4183/p4146); EU numbering; also called A330Y (CHO cell-derived); copies: 2 + 2
B4: CHO-CNTO 860 I332E (antibody)
heavy: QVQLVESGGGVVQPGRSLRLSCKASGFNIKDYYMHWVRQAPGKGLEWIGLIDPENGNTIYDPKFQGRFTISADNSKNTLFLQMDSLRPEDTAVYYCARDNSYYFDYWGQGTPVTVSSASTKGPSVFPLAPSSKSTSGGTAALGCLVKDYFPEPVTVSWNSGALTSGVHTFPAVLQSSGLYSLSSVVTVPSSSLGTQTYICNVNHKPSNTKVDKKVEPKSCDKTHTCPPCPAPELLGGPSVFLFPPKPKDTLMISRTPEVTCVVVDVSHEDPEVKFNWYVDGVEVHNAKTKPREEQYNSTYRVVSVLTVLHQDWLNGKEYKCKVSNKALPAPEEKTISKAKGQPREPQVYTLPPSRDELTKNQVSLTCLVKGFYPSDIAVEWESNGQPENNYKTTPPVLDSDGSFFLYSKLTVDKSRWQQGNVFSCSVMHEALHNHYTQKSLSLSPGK
light: B1 light
modifications: N-linked glycan at Asn297 of the heavy chain (CHO-type, highly fucosylated); not carried by the letters
notes: IgG1/kappa Fc variant; transiently expressed in CHO cells (p4157/p4146); also called I332E (CHO cell-derived); I332E from CHO cells; copies: 2 + 2
B5: CHO-CNTO 860 I332E/A330I (antibody, human IgG1, kappa)
heavy: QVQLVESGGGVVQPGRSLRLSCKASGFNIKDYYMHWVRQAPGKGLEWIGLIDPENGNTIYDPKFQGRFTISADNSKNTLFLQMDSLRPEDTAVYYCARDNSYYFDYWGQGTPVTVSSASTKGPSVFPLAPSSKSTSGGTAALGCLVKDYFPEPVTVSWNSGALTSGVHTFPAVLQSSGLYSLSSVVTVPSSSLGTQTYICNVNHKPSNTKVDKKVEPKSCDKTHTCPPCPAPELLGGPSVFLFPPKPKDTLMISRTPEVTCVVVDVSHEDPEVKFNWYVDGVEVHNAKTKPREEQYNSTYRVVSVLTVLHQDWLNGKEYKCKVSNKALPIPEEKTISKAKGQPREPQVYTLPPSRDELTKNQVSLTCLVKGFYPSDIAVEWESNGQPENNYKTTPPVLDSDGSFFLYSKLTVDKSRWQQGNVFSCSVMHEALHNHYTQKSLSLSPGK
light: B1 light
modifications: Heavy chain N297 carries the CHO-type N-linked glycan (about 95% fucosylated); not carried by the letters.
notes: IgG1/kappa Fc variant; transiently expressed in CHO cells (p4185/p4146); EU numbering; also called A330I/I332E (CHO cell-derived); A330I/I332E variant from CHO cells; copies: 2 + 2
B6: CHO-CNTO 860 I332E/S239D (antibody, human IgG1, kappa)
heavy: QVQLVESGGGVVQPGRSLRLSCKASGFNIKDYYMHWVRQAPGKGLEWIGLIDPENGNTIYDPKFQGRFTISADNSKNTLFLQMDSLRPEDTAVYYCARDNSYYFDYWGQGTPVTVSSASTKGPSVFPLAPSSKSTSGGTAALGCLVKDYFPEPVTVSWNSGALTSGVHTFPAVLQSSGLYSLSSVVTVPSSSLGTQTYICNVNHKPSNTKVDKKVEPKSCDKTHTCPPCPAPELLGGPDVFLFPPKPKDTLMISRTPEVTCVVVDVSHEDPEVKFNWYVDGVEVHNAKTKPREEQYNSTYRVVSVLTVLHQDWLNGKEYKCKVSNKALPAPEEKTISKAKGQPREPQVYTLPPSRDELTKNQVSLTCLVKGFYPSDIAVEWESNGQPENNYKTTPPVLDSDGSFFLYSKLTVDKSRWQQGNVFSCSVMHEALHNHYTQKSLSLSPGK
light: B1 light
modifications: Heavy chain N297 carries the CHO-type N-linked glycan (about 95% fucosylated); not carried by the letters.
notes: IgG1/kappa Fc variant; transiently expressed in CHO cells (p4186/p4146); EU numbering; also called S239D/I332E (CHO cell-derived); copies: 2 + 2
B7: YB2/0-CNTO 860 A330I (antibody, IgG1)
heavy: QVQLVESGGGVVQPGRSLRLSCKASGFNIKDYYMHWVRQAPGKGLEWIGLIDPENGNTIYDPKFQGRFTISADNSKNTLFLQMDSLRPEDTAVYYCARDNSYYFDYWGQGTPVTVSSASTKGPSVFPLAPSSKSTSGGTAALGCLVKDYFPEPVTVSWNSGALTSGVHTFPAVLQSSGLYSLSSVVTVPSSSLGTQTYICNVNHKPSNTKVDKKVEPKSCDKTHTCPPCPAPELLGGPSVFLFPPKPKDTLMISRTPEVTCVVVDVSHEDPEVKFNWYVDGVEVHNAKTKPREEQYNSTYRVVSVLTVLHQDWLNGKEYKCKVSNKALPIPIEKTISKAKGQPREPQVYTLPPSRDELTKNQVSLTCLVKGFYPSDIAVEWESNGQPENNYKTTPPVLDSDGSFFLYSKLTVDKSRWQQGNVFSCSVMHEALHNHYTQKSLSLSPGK
light: B1 light
modifications: N-linked glycan at heavy chain Asn297 (YB2/0-type, low fucose); not carried by the letters
notes: IgG1/kappa Fc variant; stably expressed in YB2/0 cells (p4177/p2402); EU numbering; also called A330I (YB2/0 cell-derived); A330I mutant expressed in YB2/0 cells; copies: 2 + 2
B8: YB2/0-CNTO 860 A330I/I332E (antibody, human IgG1, kappa)
heavy: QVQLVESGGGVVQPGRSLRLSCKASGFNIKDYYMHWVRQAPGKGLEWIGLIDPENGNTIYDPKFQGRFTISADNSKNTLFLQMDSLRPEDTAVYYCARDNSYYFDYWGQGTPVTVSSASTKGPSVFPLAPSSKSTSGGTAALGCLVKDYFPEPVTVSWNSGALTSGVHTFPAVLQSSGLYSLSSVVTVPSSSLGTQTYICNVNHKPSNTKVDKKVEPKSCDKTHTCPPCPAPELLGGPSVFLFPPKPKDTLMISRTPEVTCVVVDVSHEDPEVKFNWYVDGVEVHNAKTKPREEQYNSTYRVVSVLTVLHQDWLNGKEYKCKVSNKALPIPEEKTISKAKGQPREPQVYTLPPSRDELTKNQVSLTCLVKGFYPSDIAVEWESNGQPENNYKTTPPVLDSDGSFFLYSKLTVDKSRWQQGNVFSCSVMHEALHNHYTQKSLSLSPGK
light: B1 light
modifications: N-linked glycan at heavy chain Asn297 (YB2/0-type, low fucose); not carried by the letters
notes: IgG1/kappa Fc variant; stably expressed in YB2/0 cells (p4178/p2402); EU numbering; also called A330I/I332E (YB2/0 cell-derived); A330I/I332E from YB2/0 cells; copies: 2 + 2
B9: YB2/0-CNTO 860 A330Y (antibody, human IgG1, kappa)
heavy: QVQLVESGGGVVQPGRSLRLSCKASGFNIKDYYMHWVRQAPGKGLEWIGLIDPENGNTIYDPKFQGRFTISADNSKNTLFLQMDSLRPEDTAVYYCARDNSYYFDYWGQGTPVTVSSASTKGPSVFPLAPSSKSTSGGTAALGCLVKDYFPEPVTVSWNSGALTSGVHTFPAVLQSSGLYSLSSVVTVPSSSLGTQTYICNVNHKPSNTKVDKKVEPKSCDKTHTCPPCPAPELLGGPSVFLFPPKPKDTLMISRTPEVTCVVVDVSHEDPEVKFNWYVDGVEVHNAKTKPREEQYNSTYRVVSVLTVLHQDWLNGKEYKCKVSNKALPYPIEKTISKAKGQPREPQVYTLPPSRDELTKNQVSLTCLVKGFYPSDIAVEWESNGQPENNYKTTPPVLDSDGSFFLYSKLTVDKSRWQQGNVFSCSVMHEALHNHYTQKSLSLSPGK
light: B1 light
modifications: N-linked glycan at heavy chain Asn297 (YB2/0-type, low fucose); not carried by the letters
notes: IgG1/kappa Fc variant; stably expressed in YB2/0 cells (p4176/p2402); EU numbering; also called A330Y (YB2/0 cell-derived); copies: 2 + 2
B10: YB2/0-CNTO 860 I332E (antibody, human IgG1, kappa)
heavy: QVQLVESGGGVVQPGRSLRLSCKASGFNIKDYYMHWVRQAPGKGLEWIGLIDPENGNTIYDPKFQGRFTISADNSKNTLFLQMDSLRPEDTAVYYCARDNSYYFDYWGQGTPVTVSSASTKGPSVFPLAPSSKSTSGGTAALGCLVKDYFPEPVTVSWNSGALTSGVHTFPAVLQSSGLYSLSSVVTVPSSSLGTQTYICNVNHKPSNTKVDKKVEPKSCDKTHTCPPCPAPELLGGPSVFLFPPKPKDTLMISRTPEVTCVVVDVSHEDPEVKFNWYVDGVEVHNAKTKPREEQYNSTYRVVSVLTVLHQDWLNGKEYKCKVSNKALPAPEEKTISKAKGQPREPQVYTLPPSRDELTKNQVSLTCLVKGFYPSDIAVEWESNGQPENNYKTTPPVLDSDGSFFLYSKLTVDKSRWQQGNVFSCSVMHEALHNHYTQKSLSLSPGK
light: B1 light
modifications: Heavy chain N297 carries the YB2/0-type low-fucose N-linked glycan; not carried by the letters.
notes: IgG1/kappa Fc variant; stably expressed in YB2/0 cells (p4148/p2402), low-fucose glycan; EU numbering; also called I332E (YB2/0 cell-derived); I332E from YB2/0 cells; copies: 2 + 2
B11: YB2/0-CNTO 860 S239D/I332E (antibody, human IgG1, kappa)
heavy: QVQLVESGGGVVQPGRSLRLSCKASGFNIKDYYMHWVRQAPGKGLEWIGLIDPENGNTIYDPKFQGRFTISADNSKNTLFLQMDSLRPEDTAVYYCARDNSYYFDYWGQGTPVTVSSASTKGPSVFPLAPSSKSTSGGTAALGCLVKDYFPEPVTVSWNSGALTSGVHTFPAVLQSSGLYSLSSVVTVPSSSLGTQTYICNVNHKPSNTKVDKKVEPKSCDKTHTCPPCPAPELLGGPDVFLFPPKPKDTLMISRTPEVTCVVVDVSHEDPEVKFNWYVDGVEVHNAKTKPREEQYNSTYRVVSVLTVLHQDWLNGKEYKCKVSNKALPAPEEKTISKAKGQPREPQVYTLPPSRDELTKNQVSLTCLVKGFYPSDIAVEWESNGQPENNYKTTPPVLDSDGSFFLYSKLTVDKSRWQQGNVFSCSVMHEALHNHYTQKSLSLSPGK
light: B1 light
modifications: N-linked glycan at heavy chain Asn297 (YB2/0-type, low fucose); not carried by the letters
notes: IgG1/kappa Fc variant; stably expressed in YB2/0 cells (p4179/p2402); EU numbering; also called S239D/I332E (YB2/0 cell-derived); copies: 2 + 2
B12: YB2/0-CNTO 860 V264I/I332E (antibody, human IgG1, kappa)
heavy: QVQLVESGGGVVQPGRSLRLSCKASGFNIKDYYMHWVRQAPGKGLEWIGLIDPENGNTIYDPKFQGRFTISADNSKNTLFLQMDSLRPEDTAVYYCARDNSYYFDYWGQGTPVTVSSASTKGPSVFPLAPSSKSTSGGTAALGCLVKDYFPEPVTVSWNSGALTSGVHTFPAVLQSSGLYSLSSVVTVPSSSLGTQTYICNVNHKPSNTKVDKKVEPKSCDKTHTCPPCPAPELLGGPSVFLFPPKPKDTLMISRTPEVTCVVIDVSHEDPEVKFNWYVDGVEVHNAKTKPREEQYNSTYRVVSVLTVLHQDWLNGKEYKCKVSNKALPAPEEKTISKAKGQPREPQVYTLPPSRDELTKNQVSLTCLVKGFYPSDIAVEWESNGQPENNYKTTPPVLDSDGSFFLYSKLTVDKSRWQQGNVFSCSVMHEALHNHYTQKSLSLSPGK
light: B1 light
modifications: N-linked glycan at heavy chain Asn297 (YB2/0-type, low fucose); not carried by the letters
notes: IgG1/kappa Fc variant; stably expressed in YB2/0 cells (p4180/p2402); EU numbering; also called V264I/I332E (YB2/0 cell-derived); copies: 2 + 2
B13: YB2/0-CNTO 860 WT (antibody, human IgG1, kappa)
heavy: not shown
light: B1 light
modifications: Heavy chain N297 carries the YB2/0-type N-linked glycan (40-60% fucosylated); not carried by the letters.
notes: Anti-human tissue factor human IgG1/kappa; stably expressed in rat YB2/0 cells (p2401/p2402; YB2/0 Abs typically 40-60% fucosylated), purified by protein A; also called WT (YB2/0 cell-derived); WT from YB2/0 cells; copies: 2 + 2

Columns and labels:
[1] = biological target: T3, recombinant human His-tagged FcγRI (extracellular domain, R&D Systems #1257-FC-050) (human, UniProt P12314 16-292); assay: ELISA, His-tagged FcγRI captured on HisGrab plate
T3 construct: extracellular domain; Bought; also called CD64; recombinant, soluble, human FcγRI
T3 sequence (P12314 16-292): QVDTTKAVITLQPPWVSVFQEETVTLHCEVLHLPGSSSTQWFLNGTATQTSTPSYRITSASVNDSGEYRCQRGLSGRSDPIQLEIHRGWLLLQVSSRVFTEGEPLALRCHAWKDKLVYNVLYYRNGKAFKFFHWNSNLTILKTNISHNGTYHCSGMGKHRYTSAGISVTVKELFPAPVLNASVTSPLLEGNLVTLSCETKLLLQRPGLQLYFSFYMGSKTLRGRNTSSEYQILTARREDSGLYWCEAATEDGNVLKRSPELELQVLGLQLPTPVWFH
Method: FcγRI (CD64) ELISA —50 μl of a 1 μg/ml solution of recombinant human His-tagged FcγRI (extracellular domain, R&D Systems #1257-FC-050) in ELISA buffer (PBS, pH 7.4, 4 mg/ml BSA, 0.01% Tween-20) was added to each well of HisGrab 96 well plates (Pierce #15142) (Powers G., Notebook 9006, pp. 166-168, 180-181). The plate was incubated with shaking for 3 hours. The plates were washed 3× with 300 μl of wash buffer (PBS, 0.01% Tween-20) on a plate washer. Serial dilutions of the CNTO860 antibody Fc-variant samples were made in ELISA buffer and 50 μl per well of each titration were added in duplicate to the FcγRI-coated plates. The plates were incubated with shaking for 1 hour. The plates were washed 3× with 300 μl of wash buffer on a plate washer. 50 μl of a 1:10,000 dilution of HRP-labeled goat F(ab′)₂ anti-human IgG F(ab′)₂ (Jackson Immunoresearch # 109-036-097) in ELISA buffer was added to each well. The plates were incubated with shaking for 30 minutes. The plates were washed 3× with 300 μl of wash buffer on the plate washer. 50 μl per well TMB substrate (RDI #RDI-TMBSU-1L) was added to each well and developed for 5 minutes. The reaction was stopped by adding 100 μl 0.2 N sulfuric acid. The plates were read at OD450 on an Envision plate reader.

[2] = biological target: T1, recombinant human His-tagged FcγRIIa …; assay: AlphaScreen, His-tagged FcγRIIa on nickel acceptor beads
Method: (§1) FcγRIIa (CD32a) AlphaScreen—Nickel acceptor beads (Perkin Elmer #6760619C) were diluted 1:50 in assay buffer (PBS, pH 7.4, 4 mg/ml BSA, 0.01% Tween-20), and 27.5 μl were added to each well of a Nunc V-bottom polypropylene plate (VWR # 62409-108) (Powers G., Notebook 9006, pp. 169-175, 182-185). A 2.0 μg/ml solution of recombinant human His-tagged FcγRIIa (R&D Systems #1330-CD-050) was prepared in assay buffer and 27.5 μl added to each well of a separate Nunc V bottom polypropylene plate. Titrations of test Abs were prepared in the Nunc V bottom polypropylene plate starting at 30 μg/ml. A 2 μg/ml solution of biotinylated goat F(ab′)₂ anti-human IgG F(ab′)₂ (Jackson Immunoresearch #109-066-097) was prepared in assay buffer and 27.5 μl added to each well of another Nunc V bottom polypropylene plate. A 1:50 dilution of streptavidin donor beads (PerkinElmer # 6760002) was prepared in assay buffer and 27.5 μl added to each well of another Nunc V bottom polypropylene plate. A volume of 5 μl of each reagent was added to the corresponding quadrants of a low-volume, non-binding white 384-well plate (Corning # 3673) in the following order: acceptor beads, FcγRIIa, test Ab, biotinylated anti-human IgG F(ab′)₂, and streptavidin donor beads. The plates were incubated for 30 minutes with shaking and the O.D.s determined using an Envision plate reader.

[3] = biological target: T2, recombinant human FcγRIIb (R&D Systems …); assay: AlphaScreen, FcγRIIb on nickel acceptor beads
Method: as §1
FcγRIIb (CD32b) AlphaScreen—The assay was performed as described above for FcγRIIa except that FcγRIIa was replaced with FcγRIIb (R&D Systems #1875-CD-050).

[4] = biological target: T4, recombinant human His-tagged FcγRIIIa (extracellular domain made at Centocor) (human, UniProt P08637 17-208); assay: ELISA, His-tagged FcγRIIIa captured on HisGrab plate
T4 construct: extracellular domain; also called CD16a; recombinant, soluble, human FcγRIIIa
T4 sequence (P08637 17-208): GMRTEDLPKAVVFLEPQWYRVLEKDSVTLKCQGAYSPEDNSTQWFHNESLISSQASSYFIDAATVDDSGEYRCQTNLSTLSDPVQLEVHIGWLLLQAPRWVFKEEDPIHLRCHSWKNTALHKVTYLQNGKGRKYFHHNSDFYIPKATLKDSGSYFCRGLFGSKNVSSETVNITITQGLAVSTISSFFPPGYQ
Method: FcγRIIIa (CD16a) ELISA—A human FcγRIIIa binding assay was done in ELISA format similar to the assay for FcγRI above. 50 μl of a 2 μg/ml solution of recombinant human His-tagged FcγRIIIa (extracellular domain made at Centocor) in ELISA buffer (PBS, 4 mg/ml BSA, 0.01% Tween-20) was added to each well of HisGrab 96 well plates (Pierce #15142) (Powers G., Notebook 10378, 19-23). The plate was incubated for 3 hours at room temp. The plates were blocked with 200 μl of Starting Block (Pierce #15142) for 30 min, and then washed 3× with 300 μl of wash buffer (PBS, 0.01% Tween-20) on a plate washer. Serial dilutions of the CNTO 860 test samples were made in Starting Block buffer and 50 μl per well of each titration were added in duplicate to the FcγRIIIa-coated plates. The plates were incubated for 1 hour. The plates were washed 3× with 300 μl of wash buffer on a plate washer. 50 μl of a 1:10,000 dilution of HRP-labeled goat F(ab′)2 anti-human IgG F(ab′)2 (Jackson Immunoresearch # 109-036-097) in Starting Block buffer was added to each well. The plates were incubated for 30 minutes. The plates were washed 3× with 300 μl of wash buffer on the plate washer. 50 μl per well TMB substrate (RDI #RDI-TMBSU-1L) was added to each well and developed for 3-5 minutes. The reaction was stopped by adding 100 μl […] sulfuric acid. The plates were read at OD450 on an Envision plate reader. Antibody concentration vs OD450 values were graphed for each CNTO 860 variant and the antibody concentration needed to achieve an OD450 reading of 0.14 established by interpolation within each data curve.

| Binder | concentration (ng/ml) required for an O.D. value of 1.0 [1] | concentration (ng/ml) required for a set O.D. signal [2] | concentration (ng/ml) required for an O.D. value of 200,000 [3] | concentration (ng/ml) required for an O.D. value of 0.14 [4] |
| --- | --- | --- | --- | --- |
| B1 | 480 ng/mL | 97 ng/mL | 165 ng/mL | 4500 ng/mL |
| B2 | 750 ng/mL | 2250 ng/mL | 75000 ng/mL | 19000 ng/mL |
| B3 | 420 ng/mL | 142 ng/mL | 280 ng/mL | 3300 ng/mL |
| B4 | 300 ng/mL | 76 ng/mL | 105 ng/mL | 750 ng/mL |
| B5 | 420 ng/mL | 900 ng/mL | 4500 ng/mL | 520 ng/mL |
| B6 | 480 ng/mL | 75 ng/mL | 27 ng/mL | 600 ng/mL |
| B7 | 570 ng/mL | 450 ng/mL | 37000 ng/mL | 1200 ng/mL |
| B8 | 310 ng/mL | 1500 ng/mL | 10500 ng/mL | 240 ng/mL |
| B9 | 420 ng/mL | 78 ng/mL | 165 ng/mL | 340 ng/mL |
| B10 | 300 ng/mL | 60 ng/mL | 75 ng/mL | 165 ng/mL |
| B11 | 300 ng/mL | 60 ng/mL | 20 ng/mL | 120 ng/mL |
| B12 | 480 ng/mL | 90 ng/mL | 60 ng/mL | 165 ng/mL |
| B13 | 420 ng/mL | 63 ng/mL | 120 ng/mL | 1500 ng/mL |

Reference: patent US20080311034A1 (published 2008)
